Results published in article PMC8280819 (The EMBO Journal, 2021).

Biological target: His‐SigH (Mycobacterium tuberculosis, UniProt P9WGH8 1-216)
Experiment: BLI

His‐SigH, sequence (P9WGH8 whole entry): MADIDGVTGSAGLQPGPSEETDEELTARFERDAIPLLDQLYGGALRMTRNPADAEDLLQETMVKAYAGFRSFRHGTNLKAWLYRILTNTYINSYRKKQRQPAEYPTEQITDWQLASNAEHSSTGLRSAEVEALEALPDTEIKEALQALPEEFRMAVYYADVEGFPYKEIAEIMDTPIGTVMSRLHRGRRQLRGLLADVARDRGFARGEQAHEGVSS

B1: His‐AosR (Rv1332, actinomycetes oxidative stress regulator) (natural protein)
chain: MPPVCGRRCSRTGEIRGYSGSIVRRWKRVETRDGPRFRSSLAPHEAALLKNLAGAMIGLLDDRDSSSPSDELEEITGIKTGHAQRPGDPTLRRLLPDFYRPDDLDDDDPTAVDGSESFNAALRSLHEPEIIDAKRVAAQQLLDTVPDNGGRLELTESDANAWIAAVNDLRLALGVMLEIGPRGPERLPGNHPLAAHFNVYQWLTVLQEYLVLVLMGSR
With B1 the “response, fold over reducing conditions” value was 3 fold.
